No end group written: not given here.
T1: C-terminal domain of Stt3p (residues 466-718), N-terminal His6-tagged (Saccharomyces cerevisiae, UniProt P39007 466-718)
T1 sequence (looked up): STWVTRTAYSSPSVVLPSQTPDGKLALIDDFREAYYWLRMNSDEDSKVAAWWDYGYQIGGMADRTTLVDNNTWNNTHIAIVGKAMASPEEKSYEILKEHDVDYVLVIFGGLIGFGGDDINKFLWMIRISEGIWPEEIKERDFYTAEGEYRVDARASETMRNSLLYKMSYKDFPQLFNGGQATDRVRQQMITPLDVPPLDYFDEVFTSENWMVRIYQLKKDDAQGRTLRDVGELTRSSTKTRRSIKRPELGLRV


Key:
[1] = target: C-terminal domain of Stt3p (residues 466-718), N-terminal His6-tagged (Saccharomyces cerevisiae) (UniProt P39007); test: NMR titration
[2] = target: T1, C-terminal domain of Stt3p (residues …); test: saturation transfer difference

| Kd [1] [mM] | binding result [2] | Molecule |
| --- | --- | --- |
| 9.97 |  | substrate peptide Asn-Asp-Thr-NH2 |
|  | binds | YNSTSC-NH2 [six-residue acceptor substrate peptide Tyr-Asn-Ser-Thr-Ser-Cys-Am] |

— paper PMC2838725 (Biochemistry, 2010)
